Consider 4 substances from article PMC12449476, “Transient ligand contacts of the intrinsically disordered N-terminus of neuropeptide Y2 receptor regulate arrestin-3 recruitment” (Nature Communications, 2025).

Test [1] concerns the target Neuropeptide Y (Homo sapiens) (UniProt P01303). To be noted: cited from earlier work.
Test [2] has as its target Nluc-Y2R-eYFP D42A-S43A-T44A (human) (UniProt P49146). The experiment in a line: FRET or BRET; NanoBRET equilibrium binding: dilution series of K18-Tamra-NPY on HEK293 membranes with Nluc-Y2R-eYFP variants, HBSS, 20 mM HEPES pH 7.4, 0.1% BSA, 10 min at room temperature; unspecific binding with 100 µM JNJ-31020028; biphasic fit (high- and low-affinity state). (In general: Bioluminescence resonance energy transfer reports proximity on the nanometre scale.)

Test [3] has as its target Nluc-Y2R-eYFP Δ2–41 (human) (UniProt P49146). The description is as above.
Test [4] concerns the target Δ2–41 variant or charge reversal in the acidic patches (Nluc-Y2R-eYFP variants, ligand dissociation). Kind of test: FRET or BRET; NanoBRET ligand dissociation from the low-affinity state: membranes pre-incubated with 300 nM K18-Tamra-NPY for 10 min, re-binding blocked by 50 µM JNJ-31020028, BRET decay for 20 min, one-phase dissociation fit.
Test [5] concerns the target Tetramethylrhodamine-NPY (Tamra-NPY) (porcine). Kind of test: fluorescence polarisation; fixed 50 nM Tamra-NPY, titrated with Y2R-loaded bicelles (x axis: log c, bicelles / M); empty bicelles as control. (In general: In fluorescence polarisation assays a small probe gives low polarisation when free and higher when bound to something large.)
The target in test [6] is Y2R-eYFP D35–E39K (human) (UniProt P49146). Kind of test: FRET or BRET; BRET between Nluc-arrestin-3 and Y2R-eYFP variants in live HEK293 cells, concentration-response to NPY, read 10 min after stimulation at 37 °C.
Sequence of Y2R-eYFP D35–E39K (human) (P49146 whole entry E39K): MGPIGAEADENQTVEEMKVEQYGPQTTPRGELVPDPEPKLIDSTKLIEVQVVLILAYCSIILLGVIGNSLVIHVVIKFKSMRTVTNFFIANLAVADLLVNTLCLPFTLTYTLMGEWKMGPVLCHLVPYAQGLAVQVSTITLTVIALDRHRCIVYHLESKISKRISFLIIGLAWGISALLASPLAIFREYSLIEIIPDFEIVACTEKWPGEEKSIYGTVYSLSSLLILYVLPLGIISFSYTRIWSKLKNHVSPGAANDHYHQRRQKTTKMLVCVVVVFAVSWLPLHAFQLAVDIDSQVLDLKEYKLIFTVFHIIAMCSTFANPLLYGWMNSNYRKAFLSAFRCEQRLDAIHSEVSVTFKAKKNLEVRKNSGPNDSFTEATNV

Usually Kd stands for the constant that tells how readily two partners part at equilibrium.

Several values for one entry are separate records, joined by “and”; a condition that tells them apart may be missing. Equal values may be shown once.

Sequence of Neuropeptide Y receptor type 2 (P49146 whole entry): as the sequence (P49146 whole entry E39K) above, with K39E counted along it
Sequence of lipid-reconstituted cysteine-deficient Y2R (Y2R-Δ6) (P49146 whole entry, stated change not applied): as the sequence (P49146 whole entry E39K) above, with K39E counted along it
Sequence of Nluc-Y2R-eYFP D42A-S43A-T44A (human) (P49146 whole entry D42A/S43A/T44A): as the sequence (P49146 whole entry E39K) above, with K39E, D42A, S43A, T44A counted along it
Sequence of Nluc-Y2R-eYFP Δ2–41 (human) (P49146 other isoform, or with tags, fused parts or gaps): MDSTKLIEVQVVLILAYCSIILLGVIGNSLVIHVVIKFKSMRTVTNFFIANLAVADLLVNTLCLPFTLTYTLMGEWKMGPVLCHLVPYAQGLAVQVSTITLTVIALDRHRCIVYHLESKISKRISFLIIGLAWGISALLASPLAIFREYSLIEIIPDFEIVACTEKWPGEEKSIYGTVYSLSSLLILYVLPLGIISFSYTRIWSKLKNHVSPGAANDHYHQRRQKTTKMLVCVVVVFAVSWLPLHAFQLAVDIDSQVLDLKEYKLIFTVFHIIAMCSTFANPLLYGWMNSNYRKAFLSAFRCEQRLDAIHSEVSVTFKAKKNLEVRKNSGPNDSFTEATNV

As to “Neuropeptide Y receptor type 2 (from UniProt P49146)”, in test [1], the Kd was 0.3 µM.

With K18-Tamra-NPY (peptide), the fold reduction of the affinity of the low-affinity state against wild-type Y2R in test [2] was 3 fold. Besides, in test [3], the fold reduction of the low-affinity binding constant against wild-type Y2R came to 2 fold. Besides, the fold increase of ligand dissociation (koff) against wild-type Y2R in test [4] is 2 fold and 3 fold.

The substance “lipid-reconstituted cysteine-deficient Y2R (Y2R-Δ6) (from UniProt P49146 1-381) (receptor)” yielded a Kd in test [5] of 0.0445 µM.

“Nluc-arrestin-3 (from UniProt P32121 1-409) (natural protein)” registered a BRETmax in test [6] of 49%.
